Measured values as given in patent US8632989B1, “Mutant insulin degrading enzyme and methods of use” (University of Kentucky Research Foundation, priority 2011, dated 2014).
Where two headings read alike, the source gives them in different places.

B1: wild type rat IDE (rIDE), Example 2 (protein)
chain: MNNPAIQRIEDHIVKSPEDKREYRGLELANGIKVLLISDPTTDKSSAALDVHIGSLSDPPNIPGLSHFCEHMLFLGTKKYPKENEYSQFLSEHAGSSNAFTSGEHTNYYFDVSHEHLEGALDRFAQFFLCPLFDASCKDREVNAVDSEHEKNVMNDAWRLFQLEKATGNPKHPFSKFGTGNKYTLETRPNQEGIDVREELLKFHSTYYSSNLMAICVLGRESLDDLTNLVVKLFSEVENKNVPLPEFPEHPFQEEHLKQLYKIVPIKDIRNLYVTFPIPDLQQYYKSNPGHYLGHLIGHEGPGSLLSELKSKGWVNTLVGGQKEGARGFMFFIINVDLTEEGLLHVEDIILHMFQYIQKLRAEGPQEWVFQECKDLNAVAFRFKDKERPRGYTSKIAGKLHYYPLNGVLTAEYLLEEFRPDLIDMVLDKLRPENVRVAIVSKSFEGKTDRTEQWYGTQYKQEAIPEDVIQKWQNADLNGKFKLPTKNEFIPTNFEILALEKDATPYPALIKDTAMSKLWFKQDDKFFLPKACLNFEFFSPFAYVDPLHCNMAYLYLELLKDSLNEYAYAAELAGLSYDLQNTIYGMYLSVKGYNDKQPILLKKITEKMATFEIDKKRFEIIKEAYMRSLNNFRAEQPHQHAMYYLRLLMTEVAWTKDELKEALDDVTLPRLKAFIPQLLSRLHIEALLHGNITKQAALGVMQMVEDTLIEHAHTKPLLPSQLVRYREVQLPDRGWFVYQRRNEVHNNCGIEIYYQTDMQSTSENMFLELFCQIISEPCFNTLRTKEQLGYIVFSGPRRANGIQGLRFIIQSEKPPHYLESRVEAFLITMEKAIEDMTEEAFQKHIQALAIRRLDKPKKLSAECAKYWGEIISQQYNYDRDNIEVAYLKTLSKDDIIKFYKEMLAVDAPRRHKVSVHVLAREMDSCPVVGEFPSQNDINLSEAPPLPQPEVIHNMTEFKRGLPLFPLVKPHINFMAAKL
B2: rIDE-E111F (protein)
chain: MNNPAIQRIEDHIVKSPEDKREYRGLELANGIKVLLISDPTTDKSSAALDVHIGSLSDPPNIPGLSHFCFHMLFLGTKKYPKENEYSQFLSEHAGSSNAFTSGEHTNYYFDVSHEHLEGALDRFAQFFLCPLFDASCKDREVNAVDSEHEKNVMNDAWRLFQLEKATGNPKHPFSKFGTGNKYTLETRPNQEGIDVREELLKFHSTYYSSNLMAICVLGRESLDDLTNLVVKLFSEVENKNVPLPEFPEHPFQEEHLKQLYKIVPIKDIRNLYVTFPIPDLQQYYKSNPGHYLGHLIGHEGPGSLLSELKSKGWVNTLVGGQKEGARGFMFFIINVDLTEEGLLHVEDIILHMFQYIQKLRAEGPQEWVFQECKDLNAVAFRFKDKERPRGYTSKIAGKLHYYPLNGVLTAEYLLEEFRPDLIDMVLDKLRPENVRVAIVSKSFEGKTDRTEQWYGTQYKQEAIPEDVIQKWQNADLNGKFKLPTKNEFIPTNFEILALEKDATPYPALIKDTAMSKLWFKQDDKFFLPKACLNFEFFSPFAYVDPLHCNMAYLYLELLKDSLNEYAYAAELAGLSYDLQNTIYGMYLSVKGYNDKQPILLKKITEKMATFEIDKKRFEIIKEAYMRSLNNFRAEQPHQHAMYYLRLLMTEVAWTKDELKEALDDVTLPRLKAFIPQLLSRLHIEALLHGNITKQAALGVMQMVEDTLIEHAHTKPLLPSQLVRYREVQLPDRGWFVYQRRNEVHNNCGIEIYYQTDMQSTSENMFLELFCQIISEPCFNTLRTKEQLGYIVFSGPRRANGIQGLRFIIQSEKPPHYLESRVEAFLITMEKAIEDMTEEAFQKHIQALAIRRLDKPKKLSAECAKYWGEIISQQYNYDRDNIEVAYLKTLSKDDIIKFYKEMLAVDAPRRHKVSVHVLAREMDSCPVVGEFPSQNDINLSEAPPLPQPEVIHNMTEFKRGLPLFPLVKPHINFMAAKL
B3: wild type rat IDE, Example 1 (protein)
chain: TMNNPAIQRIEDHIVKSPEDKREYRGLELANGIKVLLISDPTTDKSSAALDVHIGSLSDPPNIPGLSHFCFHMLFLGTKKYPKENEYSQFLSEHAGSSNAFTSGEHTNYYFDVSHEHLEGALDRFAQFFLCPLFDASCKDREVNAVDSEHEKNVMNDAWRLFQLEKATGNPKHPFSKFGTGNKYTLETRPNQEGIDVREELLKFHSTYYSSNLMAICVLGRESLDDLTNLVVKLFSEVENKNVPLPEFPEHPFQEEHLKQLYKIVPIKDIRNLYVTFPIPDLQQYYKSNPGHYLGHLIGHEGPGSLLSELKSKGWVNTLVGGQKEGARGFMFFIINVDLTEEGLLHVEDIILHMFQYIQKLRAEGPQEWVFQECKDLNAVAFRFKDKERPRGYTSKIAGKLHYYPLNGVLTAEYLLEEFRPDLIDMVLDKLRPENVRVAIVSKSFEGKTDRTEQWYGTQYKQEAIPEDVIQKWQNADLNGKFKLPTKNEFIPTNFEILALEKDATPYPALIKDTAMSKLWFKQDDKFFLPKACLNFEFFSPFAYVDPLHCNMAYLYLELLKDSLNEYAYAAELAGLSYDLQNTIYGMYLSVKGYNDKQPILLKKITEKMATFEIDKKRFEIIKEAYMRSLNNFRAEQPHQHAMYYLRLLMTEVAWTKDELKEALDDVTLPRLKAFIPQLLSRLHIEALLHGNITKQAALGVMQMVEDTLIEHAHTKPLLPSQLVRYREVQLPDRGWFVYQRRNEVHNNCGIEIYYQTDMQSTSENMFLELFCQIISEPCFNTLRTKEQLGYIVFSGPRRANGIQGLRFIIQSEKPPHYLESRVEAFLITMEKAIEDMTEEAFQKHIQALAIRRLDKPKKLSAECAKYWGEIISQQYNYDRDNIEVAYLKTLSKDDIIKFYKEMLAVDAPRRHKVSVHVLAREMDSCPVVGEFPSQNDINLSEAPPLPQPEVIHNMTEFKRGLPLFPLVKPHINFMAAKL
B4: IDE^K898A,K899A,S901A (protein)
chain: TMNNPAIQRIEDHIVKSPEDKREYRGLELANGIKVLLISDPTTDKSSAALDVHIGSLSDPPNIPGLSHFCEHMLFLGTKKYPKENEYSQFLSEHAGSSNAFTSGEHTNYYFDVSHEHLEGALDRFAQFFLCPLFDASCKDREVNAVDSEHEKNVMNDAWRLFQLEKATGNPKHPFSKFGTGNKYTLETRPNQEGIDVREELLKFHSTYYSSNLMAICVLGRESLDDLTNLVVKLFSEVENKNVPLPEFPEHPFQEEHLKQLYKIVPIKDIRNLYVTFPIPDLQQYYKSNPGHYLGHLIGHEGPGSLLSELKSKGWVNTLVGGQKEGARGFMFFIINVDLTEEGLLHVEDIILHMFQYIQKLRAEGPQEWVFQECKDLNAVAFRFKDKERPRGYTSKIAGKLHYYPLNGVLTAEYLLEEFRPDLIDMVLDKLRPENVRVAIVSKSFEGKTDRTEQWYGTQYKQEAIPEDVIQKWQNADLNGKFKLPTKNEFIPTNFEILALEKDATPYPALIKDTAMSKLWFKQDDKFFLPKACLNFEFFSPFAYVDPLHCNMAYLYLELLKDSLNEYAYAAELAGLSYDLQNTIYGMYLSVKGYNDKQPILLKKITEKMATFEIDKKRFEIIKEAYMRSLNNFRAEQPHQHAMYYLRLLMTEVAWTKDELKEALDDVTLPRLKAFIPQLLSRLHIEALLHGNITKQAALGVMQMVEDTLIEHAHTKPLLPSQLVRYREVQLPDRGWFVYQRRNEVHNNCGIEIYYQTDMQSTSENMFLELFCQIISEPCFNTLRTKEQLGYIVFSGPRRANGIQGLRFIIQSEKPPHYLESRVEAFLITMEKAIEDMTEEAFQKHIQALAIRRLDKPAALAAECAKYWGEIISQQYNYDRDNIEVAYLKTLSKDDIIKFYKEMLAVDAPRRHKVSVHVLAREMDSCPVVGEFPSQNDINLSEAPPLPQPEVIHNMTEFKRGLPLFPLVKPHINFMAAKL
B5: IDE^R429S (protein)
chain: TMNNPAIQRIEDHIVKSPEDKREYRGLELANGIKVLLISDPTTDKSSAALDVHIGSLSDPPNIPGLSHFCEHMLFLGTKKYPKENEYSQFLSEHAGSSNAFTSGEHTNYYFDVSHEHLEGALDRFAQFFLCPLFDASCKDREVNAVDSEHEKNVMNDAWRLFQLEKATGNPKHPFSKFGTGNKYTLETRPNQEGIDVREELLKFHSTYYSSNLMAICVLGRESLDDLTNLVVKLFSEVENKNVPLPEFPEHPFQEEHLKQLYKIVPIKDIRNLYVTFPIPDLQQYYKSNPGHYLGHLIGHEGPGSLLSELKSKGWVNTLVGGQKEGARGFMFFIINVDLTEEGLLHVEDIILHMFQYIQKLRAEGPQEWVFQECKDLNAVAFRFKDKESPRGYTSKIAGKLHYYPLNGVLTAEYLLEEFRPDLIDMVLDKLRPENVRVAIVSKSFEGKTDRTEQWYGTQYKQEAIPEDVIQKWQNADLNGKFKLPTKNEFIPTNFEILALEKDATPYPALIKDTAMSKLWFKQDDKFFLPKACLNFEFFSPFAYVDPLHCNMAYLYLELLKDSLNEYAYAAELAGLSYDLQNTIYGMYLSVKGYNDKQPILLKKITEKMATFEIDKKRFEIIKEAYMRSLNNFRAEQPHQHAMYYLRLLMTEVAWTKDELKEALDDVTLPRLKAFIPQLLSRLHIEALLHGNITKQAALGVMQMVEDTLIEHAHTKPLLPSQLVRYREVQLPDRGWFVYQRRNEVHNNCGIEIYYQTDMQSTSENMFLELFCQIISEPCFNTLRTKEQLGYIVFSGPRRANGIQGLRFIIQSEKPPHYLESRVEAFLITMEKAIEDMTEEAFQKHIQALAIRRLDKPKKLSAECAKYWGEIISQQYNYDRDNIEVAYLKTLSKDDIIKFYKEMLAVDAPRRHKVSVHVLAREMDSCPVVGEFPSQNDINLSEAPPLPQPEVIHNMTEFKRGLPLFPLVKPHINFMAAKL

Assays:
Abz-GGFLRKHGQ-EDDnp [1] = biological target: T1, Abz-GGFLRKHGQ-EDDnp
T1 chain: GGFLRKHGQ

Abz-GGFLRKHGQ-EDDnp [2] = experiment: Enzyme activity assay, kinetics of wild type rIDE and distal site mutants with fluorogenic substrate; assay type: biochemical; details: Abz-GGFLRKHGQ-EDDnp substrate
Method: FIG. 17. Effects of distal site mutations. (A) Comparison of the kinetics of wild type IDE with the distal site mutants. Activity was measured with varying amounts of Abz-[…]-EDDnp (SEQ ID NO:3) substrate as indicated. Either hyperbolic (Michaelis-Menten equation) or sigmoidal curves (Hill equation) were fit to the data. (B) Effect of bradykinin on the activity of wild type IDE and the distal site mutants. (C) Activation of wild type IDE and distal site mutants by ATP. Relative activity is the fold activation above the level of the wild type enzyme alone.
The activity of IDE was measured by following the increase in fluorescence upon hydrolysis at the L-R bond of the fluorogenic peptide Abz-[…]-EDDnp (SEQ ID NO:3) on a SpectraMax Gemini XS fluorescence plate reader using an excitation wavelength of 318 nm and emission wavelength of 419 nm. Reactions were carried out in 200 μl volumes containing 50 mM Tris-HCl, pH 7.4, 1.92 μg of wild type rIDE, 4.6 μg of rIDE-V360S, 4.3 μg rIDE-I374S, or 1.63 μg of rIDE-Y609F. For measurements of activation by bradykinin, IDE activity was determined with 10 μM Abz-[…]-EDDnp (SEQ ID NO:3) as substrate in 50 mM Tris-HCl buffer, pH 7.4. The amount of protein was 0.5 μg for wild type rIDE and 5 μg for each of the IDE distal-site mutants. Data were analyzed using Softmax 4.0 (Molecular Devices) and kinetic parameters calculated with Prism (Graphpad Software). […] Under these assay conditions, both wild type and mutant rIDE are almost completely dimeric.

Chain of bradykinin, P01042 (P01042 whole entry, looked up): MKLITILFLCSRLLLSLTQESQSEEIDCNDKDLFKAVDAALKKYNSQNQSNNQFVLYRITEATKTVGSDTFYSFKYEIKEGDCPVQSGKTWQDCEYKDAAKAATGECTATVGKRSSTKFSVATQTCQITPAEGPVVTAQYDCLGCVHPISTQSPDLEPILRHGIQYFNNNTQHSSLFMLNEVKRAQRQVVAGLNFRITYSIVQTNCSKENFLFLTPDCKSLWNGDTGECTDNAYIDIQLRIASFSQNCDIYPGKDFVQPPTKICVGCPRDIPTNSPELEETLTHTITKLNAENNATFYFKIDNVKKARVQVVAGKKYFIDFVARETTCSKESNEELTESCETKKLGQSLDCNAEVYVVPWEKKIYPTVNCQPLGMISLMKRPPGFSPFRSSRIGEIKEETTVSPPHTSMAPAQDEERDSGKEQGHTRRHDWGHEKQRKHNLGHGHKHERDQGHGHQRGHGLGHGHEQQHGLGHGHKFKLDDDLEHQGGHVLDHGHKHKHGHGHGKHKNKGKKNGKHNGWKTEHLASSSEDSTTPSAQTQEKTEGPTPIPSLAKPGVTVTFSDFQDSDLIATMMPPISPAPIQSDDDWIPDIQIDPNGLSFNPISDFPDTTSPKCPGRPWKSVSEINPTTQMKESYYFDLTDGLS

Row | Molecule | Hill coefficient (Abz-GGFLRKHGQ-EDDnp [1]) | Km (Abz-GGFLRKHGQ-EDDnp [1]) | Specific activity (Abz-GGFLRKHGQ-EDDnp [1]) | Vmax (Abz-GGFLRKHGQ-EDDnp [1]) | Heterotropic activation of Abz-GGFLRKHGQ-EDDnp hydrolysis (bradykinin, P01042) | Specific activity (Abz-GGFLRKHGQ-EDDnp [2]) | kcat (Abz-GGFLRKHGQ-EDDnp [1]) | effect of bradykinin on the rate of Abz-GGFLRKHGQ-EDDnp hydrolysis (bradykinin, P01042)
1 | B1 | 1.8 | 15.9 µM | 8,131 nmol/min/mg for the wild type enzyme | 35.5 nmol/min/mg | approximately 4-fold for the wild type enzyme |  |  | 
2 | B2 |  |  | 5.2 nmol/min/mg for the E111F mutant |  |  | 5.2 nmol/min/mg |  | 
3 | B3 | 2.1 |  |  | 47.2 nmol/min/mg |  |  | 5.2 min⁻¹ | 
4 | B4 | 1.7 |  |  | 141 nmol/min/mg |  |  | 15.5 min⁻¹ | the observed rate for IDE^K898A,K899A,S901A was significantly reduced
5 | B5 | 1.7 |  |  | 42.3 nmol/min/mg |  |  | 4.7 min⁻¹ | 
